Test results from patent US20250043302A1, “MUTATED HYDROXYPHENYLPYRUVATE DIOXYGENASE POLYPEPTIDE, AND CODING GENE AND USE THEREOF” (BEIJING DABEINONG BIOTECHNOLOGY CO., LTD., priority 2021, published 2025).

Tests used:
Type in all cases: in vivo
[1] = tested on: Arabidopsis thaliana T1 plants; test: Topramezone tolerance of transgenic Arabidopsis thaliana T1 plants (spray, bleached leaf area grade, damage score); conditions: 7 DAT, Table 4; for Classification and statistics of the grade of pesticide damage: Grade 0 / Classification and statistics of the grade of pesticide damage: Grade 1 / Classification and statistics of the grade of pesticide damage: Grade 2 / Classification and statistics of the grade of pesticide damage: Grade 3: number of plants; for Scores: pesticide damage score 0-100
Method in brief: (§1)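 Damage was assessed by bleaching grade (0 none; 1 <50%; 2 >50%; 3 100% of leaf area) one week after spraying. Sprays on 18-day-old T1 and wild-type plants used field-rate multiples: topramezone 25–200, isoxaflutole 35–280, mesotrione 52.5–420 g ai/ha.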

[2] = tested on: Arabidopsis thaliana T1 plants; test: Isoxaflutole tolerance of transgenic Arabidopsis thaliana T1 plants (spray, bleached leaf area grade, damage score); set-up: Scores (pesticide damage): scale not given here; conditions: spray, Arabidopsis thaliana T1 plants; for Classification and statistics of the grade of pesticide damage: Grade 0 (number of plants) / Classification and statistics of the grade of pesticide damage: Grade 1 (number of plants) / Classification and statistics of the grade of pesticide damage: Grade 2 (number of plants) / Classification and statistics of the grade of pesticide damage: Grade 3 (number of plants): 16 plants
Method in brief: as §1

[3] = tested on: Arabidopsis thaliana T1 plants; test: Mesotrione tolerance of transgenic Arabidopsis thaliana T1 plants (spray, bleached leaf area grade, damage score); set-up: Scores: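 damage score 0-100 computed as Σ(N×S)/(T×M)×100 over grades 0-3 with higher meaning more damage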; conditions: Arabidopsis thaliana T1 plants; for Grade 0 (classification and statistics of the grade of pesticide damage; number of plants) / Grade 1 (classification and statistics of the grade of pesticide damage; number of plants) / Grade 2 (classification and statistics of the grade of pesticide damage; number of plants) / Grade 3 (classification and statistics of the grade of pesticide damage; number of plants): 16 plants
Method in brief: as §1

soybean T1 plants [4] = test: Topramezone tolerance of transgenic soybean T1 plants; conditions: different concentrations
Procedure: T1 transformants were initially selected from the untransformed seeds using a glufosinate selection scheme. […] The degree of damage caused by the herbicide was measured for each plant according to the proportion of bleached leaf area (the proportion of bleached leaf area=bleached leaf area/total leaf area×100%) 7 days after spraying (7 DAT): the case where there is basically no bleached phenotype is defined as grade 0, the case where the proportion of bleached leaf area is less than 50% is defined as grade 1, the case where the proportion of bleached leaf area is more than 50% is defined as grade 2, and the case where the proportion of bleached leaf area is 100% grade is defined as grade 3.
The soybean T1 plants into which the SbHPPD-02 nucleotide sequence was introduced, soybean T1 plants into which the SbHPPDm-F372A-02 nucleotide sequence was introduced, soybean T1 plants into which the SbHPPDm-F383W-02 nucleotide sequence was introduced, soybean T1 plants into which the SbHPPDm-F372A-F383W-02 nucleotide sequence was introduced, soybean T1 plants into which the control vector DBN11726N nucleotide sequence was introduced, and wild-type soybean plants (V3-V4 at seedling stage) were sprayed with topramezone at three different concentrations (i.e., 25 g ai/ha (one-fold field concentration, 1×). […] According to the method in point 6 of Example 1, after 7 days of spraying (7 DAT), the damage degree of each plant by the herbicide was statistically analyzed, and the scoring and resistance evaluation were carried out accordingly. […]

soybean T1 plants [5] = test: Isoxaflutole tolerance of transgenic soybean T1 plants; conditions: different concentrations
soybean T1 plants [6] = test: Mesotrione tolerance of transgenic soybean T1 plants; conditions: different concentrations
[7] = isoxaflutole 35 g ai/ha (0.5x field concentration)
[8] = isoxaflutole 70 g ai/ha (1x field concentration)

B1: SbHPPDm-F372A-F383W-02: nucleotide sequence encoding Sorghum bicolor HPPD with F372A+F383W; vector DBN11761 (nucleic acid)
DNA: ATGCCGCCCACTCCAACAACTGCTGCTGCGACGGGAGCAGCTGTCGCCGCTGCTTCTGCTGAGCAGGCTGCCTTCAGGCTCGTCGGGCACAGAAATTTTGTTCGTGTAAATCCAAGGAGTGATAGGTTCCACACCTTGGCTTTTCACCACGTGGAGTTGTGGTGTGCTGATGCAGCCTCGGCAGCGGGGCGCTTCTCGTTTGGTCTCGGTGCTCCGCTCGCCGCAAGATCTGATCTTAGCACTGGAAACACAGCGCATGCCTCCCTGCTCCTGCGCTCTGGCGCGCTGGCGTTCCTCTTCACGGCGCCATATGCTCACGGCGCCGACGCCGCCACCGCGTCATTGCCGTCTTTTAGTGCAGCCGAAGCAAGAAGATTTGCAGCAGACCACGGCCTCGCCGTAAGGGCCGTGGCCTTACGTGTCGCCGATGCCGAAGATGCTTTCCGCGCCTCTGTAGCAGCTGGAGCAAGGCCAGCATTTGAACCTGTTGAATTGGGGTTAGGATTCCGTCTTGCAGAAGTTGAGCTTTATGGCGACGTTGTTTTGAGATACGTTTCATATCCTGATGACGCTGACGCTAGCTTCTTGCCTGGTTTTGTGGGGGTGACATCACCTGGGGCAGCAGATTATGGTCTCAGGCGGTTTGATCATATTGTTGGAAACGTTCCTGAACTCGCGCCGGCGGCAGCCTACTTCGCCGGTTTCACTGGGTTTCATGAATTTGCTGAATTCACAGCCGAGGATGTCGGCACCACCGAGAGTGGACTGAACTCCATGGTGCTGGCCAACAATGCAGAGAATGTCCTTCTTCCCTTGAATGAACCAGTTCATGGAACAAAAAGGCGTTCCCAAATACAAACATACCTCGACCATCATGGTGGACCAGGCGTTCAGCATATGGCTCTCGCTAGTGACGATGTTCTACGAACCCTGCGAGAGATGCAGGCGCGGTCTGCAATGGGAGGATTTGAGTTCATGGCACCTCCTGCCCCTGAATATTATGATGGTGTTCGGAGAAGGGCAGGTGATGTGCTAACTGAAGCTCAAATCAAGGAGTGCCAGGAGCTTGGCGTGCTGGTCGATCGGGATGATCAAGGTGTGCTTCTGCAGATTGCCACTAAACCAGTGGGTGACCGCCCCACGCTGTGGCTAGAGATCATCCAGAGAATAGGGTGCATGGAGAAGGACGAAAAAGGACAAGAGTACCAGAAGGGAGGTTGTGGCGGCTTTGGAAAAGGGAACTTCTCCCAATTATTCAAGTCAATTGAAGACTATGAAAAGAGTTTGGAGGCTAAGCAAGCTGCAGCCGCCCAGGGCAGCTGA
modifications: SbHPPDm-F372A-F383W-02 Nucleotide Sequence
notes: vector DBN11761
Q: How did the “Classification and statistics of the grade of pesticide damage: Grade 0” value ([1]; topramezone 25 g ai/ha (1×)) turn out when B1 was run?
A: The value was 16.

Q: And the “Classification and statistics of the grade of pesticide damage: Grade 1” value ([1]; topramezone 25 g ai/ha (1×))?
A: Its value is 0.

Q: And the “Classification and statistics of the grade of pesticide damage: Grade 2” value ([1]; topramezone 25 g ai/ha (1×))?
A: The value was 0.

Q: What about the “Classification and statistics of the grade of pesticide damage: Grade 3” value ([1]; topramezone 25 g ai/ha (1×)) of the same molecule?
A: The value was 0.

Q: And the “Classification and statistics of the grade of pesticide damage: Grade 0” value ([1]; topramezone 100 g ai/ha (4×))?
A: Its value is 9.

Q: And the “Classification and statistics of the grade of pesticide damage: Grade 1” value ([1]; topramezone 100 g ai/ha (4×))?
A: The value was 7.

Q: What about the “Classification and statistics of the grade of pesticide damage: Grade 2” value ([1]; topramezone 100 g ai/ha (4×)) of the same molecule?
A: Its value is 0.

Q: What about the “Classification and statistics of the grade of pesticide damage: Grade 3” value ([1]; topramezone 100 g ai/ha (4×)) of the same molecule?
A: The value was 0.

Q: What about the Scores ([1]; topramezone 25 g ai/ha (1×)) of the same molecule?
A: The Scores was 0.

Q: And the Scores ([1]; topramezone 100 g ai/ha (4×))?
A: The Scores was 15.

Q: What about the Resistance evaluation ([1]; topramezone 25 g ai/ha (1×)) of the same molecule?
A: Its Resistance evaluation is “highly”.

Q: What about the Resistance evaluation ([1]; topramezone 100 g ai/ha (4×)) of the same molecule?
A: Its Resistance evaluation is “highly”.

Q: What about the Resistance evaluation [2, 7] of the same molecule?
A: Its Resistance evaluation is “Highly”.

Q: What about the “Scores (pesticide damage)” value [2, 7] of the same molecule?
A: Its value is 8.

Q: And the “Classification and statistics of the grade of pesticide damage: Grade 0 (number of plants)” value [2, 7]?
A: The value was 12.

Q: And the “Classification and statistics of the grade of pesticide damage: Grade 1 (number of plants)” value [2, 7]?
A: Its value is 4.

Q: What about the “Classification and statistics of the grade of pesticide damage: Grade 2 (number of plants)” value [2, 7] of the same molecule?
A: The value was 0.

Q: What about the “Classification and statistics of the grade of pesticide damage: Grade 3 (number of plants)” value [2, 7] of the same molecule?
A: Its value is 0.

Q: What about the Resistance evaluation [2, 8] of the same molecule?
A: The Resistance evaluation was “Highly”.

Q: And the “Scores (pesticide damage)” value [2, 8]?
A: The value was 13.

Q: And the “Classification and statistics of the grade of pesticide damage: Grade 0 (number of plants)” value [2, 8]?
A: Its value is 10.

Q: And the “Classification and statistics of the grade of pesticide damage: Grade 1 (number of plants)” value [2, 8]?
A: Its value is 6.

Q: What about the “Classification and statistics of the grade of pesticide damage: Grade 2 (number of plants)” value [2, 8] of the same molecule?
A: Its value is 0.

Q: And the “Classification and statistics of the grade of pesticide damage: Grade 3 (number of plants)” value [2, 8]?
A: The value was 0.

Q: What about the Resistance evaluation ([3]; mesotrione 52.5 g ai/ha) of the same molecule?
A: Its Resistance evaluation is “Highly resistant”.

Q: And the Scores ([3]; mesotrione 52.5 g ai/ha)?
A: Its Scores is 13.

Q: And the “Grade 0 (classification and statistics of the grade of pesticide damage; number of plants)” value ([3]; mesotrione 52.5 g ai/ha)?
A: Its value is 10.

Q: And the “Grade 1 (classification and statistics of the grade of pesticide damage; number of plants)” value ([3]; mesotrione 52.5 g ai/ha)?
A: The value was 6.

Q: And the “Grade 2 (classification and statistics of the grade of pesticide damage; number of plants)” value ([3]; mesotrione 52.5 g ai/ha)?
A: Its value is 0.

Q: What about the “Grade 3 (classification and statistics of the grade of pesticide damage; number of plants)” value ([3]; mesotrione 52.5 g ai/ha) of the same molecule?
A: Its value is 0.

Q: What about the Resistance evaluation ([3]; mesotrione 105 g ai/ha) of the same molecule?
A: Its Resistance evaluation is “Poorly resistant”.

Q: What about the Scores ([3]; mesotrione 105 g ai/ha) of the same molecule?
A: Its Scores is 38.

Q: And the “Grade 0 (classification and statistics of the grade of pesticide damage; number of plants)” value ([3]; mesotrione 105 g ai/ha)?
A: Its value is 0.

Q: And the “Grade 1 (classification and statistics of the grade of pesticide damage; number of plants)” value ([3]; mesotrione 105 g ai/ha)?
A: Its value is 14.

Q: What about the “Grade 2 (classification and statistics of the grade of pesticide damage; number of plants)” value ([3]; mesotrione 105 g ai/ha) of the same molecule?
A: Its value is 2.

Q: And the “Grade 3 (classification and statistics of the grade of pesticide damage; number of plants)” value ([3]; mesotrione 105 g ai/ha)?
A: Its value is 0.

Q: And the “tolerance to HPPD-inhibitor herbicides (in words): topramezone” value (soybean T1 plants [4])?
A: The value was “different degrees of tolerance”.

Q: What about the “tolerance to HPPD-inhibitor herbicides (in words): isoxaflutole” value (soybean T1 plants [5]) of the same molecule?
A: The value was “different degrees of tolerance”.

Q: What about the “tolerance to HPPD-inhibitor herbicides (in words): mesotrione” value (soybean T1 plants [6]) of the same molecule?
A: Its value is “different degrees of tolerance”.
